The target in data set [1] is BCL6 (B-Cell Lymphoma 6) S-Peptide micro-tag construct.
Data set [2] addresses MTH1-10aa-S-tag fusion protein.
Data set [3] concerns the target MTH1-3aa-S-tag fusion protein.
In data set [4] the target is MTH1-S-tag fusion protein (no linker between MTH1 and the S-tag peptide).

B1: His tagged RNase donor protein (S protein) (protein)
chain: MSSSNYCNQMMKSRNLTKDRCKPVNTFVHESLADVQAVCSQKNVACKNGQTNCYQSYSTMSITDCRETGSSKYPNCAYKTTQANKHIIVACEGNPYVPVHFDASVHHHHHH
Take B1: in data set [1], the “fluorescence signal (RLU/min) after heat challenge” value was “the micro-tag construct was denatured in the heat challenge and there was less micro-tag available for enzyme complementation resulting in lower fluorescence signal”. Further, in data set [2], the “S protein concentration at which the fluorescent signal starts to saturate” value (from here on “S protein concentration”) is given as “S protein concentration started to saturate signal at about 1-2 ng/ul S protein” and the “fluorescent signal (cleavage of the FRET substrate by complemented RNase S), 50 ug lysate, thermal gradient” value (from here on “fluorescent signal … thermal gradient”) is “there was no significant effect of spacer length on fluorescent signal”. Also, in data set [3], the “S protein concentration” value was “S protein concentration started to saturate signal at about 1-2 ng/ul S protein”; the “fluorescence increase (RLU change per minute)” value is “detected fluorescence increase that was directly proportional to the amount of micro-tagged protein in the reaction”; the “fluorescent signal … thermal gradient” value is reported as “there was no significant effect of spacer length on fluorescent signal”; the “kinetic trace of the S-tag (Micro-tag) fluorescence signal over 20 minutes” value is on record as “A kinetic trace of the development of the S-tag (Micro-tag) fluorescence signal over the course of 20 minutes”. Also, in data set [4], the “S protein concentration” value was “S protein concentration started to saturate signal at about 1-2 ng/ul S protein” and the “fluorescent signal … thermal gradient” value is given as “there was no significant effect of spacer length on fluorescent signal”.
